Key:
[1] = target: T1, FLAG-hPSMA, extracellular domain protein of hPSMA with a FLAG-tag at the N-terminus (human, UniProt Q04609 44-750); assay: phage ELISA, scFv phage clone on immobilized FLAG-PSMA
T1 construct: also called FLAG-PSMA; soluble hPSMA antigen
Protocol: The concentrated phage was monocloned and clones having the affinity to FLAG-PSMA were selected by ELISA. In ELISA, MAXISORP STARTUBE (manufactured by NUNC) in which the FLAG-PSMA of Example 5 described below was immobilized thereon, and a site not bound by FLAG-PSMA was blocked by using SuperBlock Blockig Buffer (manufactured by Thermo Fisher Scientific Inc.) was used.
Each phage clone was added to each well and allowed to react at room temperature for 30 minutes, and then each well was washed three times with PBS containing 0.1% Tween 20 (hereinafter referred to as PBS-T). Subsequently, a solution in which horseradish peroxidase-labeled anti-M13 antibody (manufactured by GE Healthcare) was diluted 5000 times with PBS-T containing 10% Block Ace (manufactured by Dainippon Pharma Co., Ltd.) was added to each well by 50 μL and incubated at room temperature for 30 minutes.

[2] = target: T2, human prostate specific membrane antigen (hPSMA), membrane form on cells (human, UniProt Q04609 1-750); assay: flow cytometry on hPSMA/PC3 cells against PC3 cells (no data disclosed)
T2 construct: endogenous on LNCaP clone FGC cells; also called membrane hPSMA
T2 sequence (Q04609 whole entry): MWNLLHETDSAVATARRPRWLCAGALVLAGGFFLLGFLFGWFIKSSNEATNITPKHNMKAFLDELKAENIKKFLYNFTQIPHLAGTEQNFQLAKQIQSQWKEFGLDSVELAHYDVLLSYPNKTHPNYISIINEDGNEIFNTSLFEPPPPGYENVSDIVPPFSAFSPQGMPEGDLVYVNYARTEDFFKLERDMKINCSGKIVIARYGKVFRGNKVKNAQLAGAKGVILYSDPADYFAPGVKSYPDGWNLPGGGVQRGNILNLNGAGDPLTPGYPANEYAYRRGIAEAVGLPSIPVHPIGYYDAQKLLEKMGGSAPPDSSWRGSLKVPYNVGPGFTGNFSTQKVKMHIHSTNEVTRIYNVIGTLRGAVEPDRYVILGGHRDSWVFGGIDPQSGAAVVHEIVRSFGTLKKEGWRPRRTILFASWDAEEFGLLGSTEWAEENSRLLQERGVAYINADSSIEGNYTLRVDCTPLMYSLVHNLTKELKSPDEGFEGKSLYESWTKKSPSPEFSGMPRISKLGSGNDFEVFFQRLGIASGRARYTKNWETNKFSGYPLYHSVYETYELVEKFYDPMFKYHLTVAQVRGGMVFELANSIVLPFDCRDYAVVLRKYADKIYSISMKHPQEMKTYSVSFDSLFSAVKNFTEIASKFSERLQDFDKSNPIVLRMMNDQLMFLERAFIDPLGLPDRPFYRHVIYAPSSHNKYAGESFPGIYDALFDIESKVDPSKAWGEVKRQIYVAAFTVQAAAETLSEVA

[3] = target: T2, human prostate specific membrane …; assay: flow cytometry on hPSMA/L929 cells (FIG. 2)
Protocol: The cells were suspended in a staining buffer [PBS containing 0.1% NaN₃ and 1% FBS] at a concentration of 1×10⁶ cells/mL, and dispensed in a round-bottom 96-well plate (manufactured by Becton Dickinson) by 100 μL/well. After the centrifugation (2000 rpm, 4° C., 2 minutes), each antibody obtained in Example 7 was added to the pellet obtained by removing the supernatant, and suspended, and then left stand at ice temperature for 30 minutes.
After the further centrifugation (2000 rpm, 4° C., 2 minutes), the pellet obtained by removing the supernatant was washed twice with 200 μL/well of the staining buffer. Thereafter, 1 μg/mL of RPE fluorescently labeled mouse anti-human antibody (hinge region) clone 4E3 antibody (manufactured by Southern Bioblot) was added thereto by 50 μL/well and incubated at ice temperature for 30 minutes. After washing twice with the staining buffer, the cells were suspended in 200 μL/well of the staining buffer, and the fluorescence intensity of each cell was measured with the flow cytometer FACSCANTO II (manufactured by Becton Dickinson). The obtained results are illustrated in FIG. 2 and FIG. 3.
hPSMA/L929 cells were stained with anti-TRAILR2 monoclonal antibody E11 antibody, anti-hPSMA monoclonal antibody PI134 antibody, or hTRAILR2-hPSMA bispecific antibody E11-CH1-PI101VH antibody, E11-CH1-PN7VH antibody or E11-CH1-PN170VH antibody. The obtained results are illustrated in FIG. 2.

T1 sequence (Q04609 other isoform, or with tags, fused parts or gaps): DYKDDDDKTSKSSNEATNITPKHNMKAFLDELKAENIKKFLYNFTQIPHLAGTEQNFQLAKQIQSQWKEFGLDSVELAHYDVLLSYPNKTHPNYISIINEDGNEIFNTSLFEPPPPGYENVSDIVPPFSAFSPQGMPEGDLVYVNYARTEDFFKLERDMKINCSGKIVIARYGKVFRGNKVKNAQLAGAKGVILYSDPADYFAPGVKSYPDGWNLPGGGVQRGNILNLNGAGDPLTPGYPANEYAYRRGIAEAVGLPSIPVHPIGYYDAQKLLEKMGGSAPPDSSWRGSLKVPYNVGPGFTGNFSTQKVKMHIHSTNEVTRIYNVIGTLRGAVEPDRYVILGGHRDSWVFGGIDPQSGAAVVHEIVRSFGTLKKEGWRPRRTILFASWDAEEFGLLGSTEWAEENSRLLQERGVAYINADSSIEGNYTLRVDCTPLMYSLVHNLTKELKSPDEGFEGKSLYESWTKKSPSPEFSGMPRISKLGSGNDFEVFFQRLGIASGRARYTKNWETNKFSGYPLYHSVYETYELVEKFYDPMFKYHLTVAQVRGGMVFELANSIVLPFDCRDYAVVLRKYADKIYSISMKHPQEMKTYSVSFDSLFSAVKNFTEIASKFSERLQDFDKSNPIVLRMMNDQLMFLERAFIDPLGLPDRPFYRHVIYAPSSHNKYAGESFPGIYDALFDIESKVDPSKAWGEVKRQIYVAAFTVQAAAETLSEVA

Binder | binding result [1] | binding result [2] | other results
PI134 phage clone (scFv displayed on M13 phage) (scFv, V domains shown, Tested as an scFv on M13 phage (phagemid pCANTAB 5E)) VH: QVQLVQSGAEVKKPGASVKVSCKASGYTFTTYDINWVRQATGQGLEWMGWMNPNNGYTGYAQKFQGRVTMTRNTSISTAYMELSSLRSEDTAVYYCARTNWVYWYFDLWGRGTLVTVSS VL: EIVLTQSPATLSLSPGERATLSCRASQSVSSFLAWYQQKPGQAPRLLIYDASNRATGIPARFSGSGSGTDFTLTISSLEPEDFAVYYCQQRSNWPLTFGPGTKVDIKR | binds | – | –
hTRAILR2-hPSMA bispecific antibody E11-ML-PI101VH antibody (bispecific antibody, IgM, domain: constant region; All four light chains carry E11 VL) heavy: not shown VL: EIVLTQSPATLSLSPGERATLSCRASQSVSSFLAWYQQKPGQAPRLLIYDASNRATGIPARFSGSGSGTDFTLTISSLEPEDFAVYYCQQRSNWPLTFGPGTKVDIKR | – | binds | –
hTRAILR2-hPSMA bispecific antibody E11-CH1-PI115VH antibody (bispecific antibody, IgG4, domain: constant region; The heavy chain is E11 VH, an IgG4 CH1 linker and PI115 VH, followed by the constant region of the vector; All four light chains carry E11 VL) heavy: not shown VL: EIVLTQSPATLSLSPGERATLSCRASQSVSSFLAWYQQKPGQAPRLLIYDASNRATGIPARFSGSGSGTDFTLTISSLEPEDFAVYYCQQRSNWPLTFGPGTKVDIKR | – | binds | –
PN170 phage clone (scFv displayed on M13 phage) (scFv, V domains shown, Tested as an scFv on M13 phage (phagemid pCANTAB 5E)) VH: EVQLVQSGAEVKKPGASVKVSCKASGYTLTSYDINWVRQATGQGLEWMGWMNPNSGYTGYAQKFQDRVTMTRNTAINTAYMELSSLRSEDTAVYYCAREAGYDGIWYFDLWGRGTLVTVSS VL: EIVLTQSPATLSLSPGERATLSCRASQSVSSFLAWYQQKPGQAPRLLIYDASNRATGIPARFSGSGSGTDFTLTISSLEPEDFAVYYCQQRSNWPLTFGPGTKVDIKR | binds | – | –
PI105 phage clone (scFv displayed on M13 phage) (scFv, V domains shown, Tested as an scFv on M13 phage (phagemid pCANTAB 5E); not shown: scFv linker, domain order, tag and M13 coat-protein fusion of phagemid pCANTAB 5E; copies: 1 + 1) VH: EVQLVQSGAEVKKPGASVKVSCKASGYTFTTYDINWVRQATGQGLEWLGWMNPNNGYTGYAQKFQGRVTMTRNTSIGTAYMELNSLRSEDTAVYYCARTNWVYWYFDLWGRGTLVTVSS VL: EIVLTQSPATLSLSPGERATLSCRASQSVSSFLAWYQQKPGQAPRLLIYDASNRATGIPARFSGSGSGTDFTLTISSLEPEDFAVYYCQQRSNWPLTFGPGTKVDIK | binds | – | –
hTRAILR2-hPSMA bispecific antibody E11-CH1-PI134VH antibody (bispecific antibody, IgG4, domain: constant region; All four light chains carry E11 VL; also called E11-CH1-PI134 antibody) heavy: not shown VL: EIVLTQSPATLSLSPGERATLSCRASQSVSSFLAWYQQKPGQAPRLLIYDASNRATGIPARFSGSGSGTDFTLTISSLEPEDFAVYYCQQRSNWPLTFGPGTKVDIKR | – | – | binding result [3]: binds
hTRAILR2-hPSMA bispecific antibody E11-CH1-PI118VH antibody (bispecific antibody, IgG4, domain: constant region; The heavy chain is E11 VH, an IgG4 CH1 linker and PI118 VH, followed by the constant region of the vector; All four light chains carry E11 VL) heavy: not shown VL: EIVLTQSPATLSLSPGERATLSCRASQSVSSFLAWYQQKPGQAPRLLIYDASNRATGIPARFSGSGSGTDFTLTISSLEPEDFAVYYCQQRSNWPLTFGPGTKVDIKR | – | binds | –
PI143 phage clone (scFv displayed on M13 phage) (scFv, V domains shown, Tested as an scFv on M13 phage (phagemid pCANTAB 5E); also called P1143) VH: QVQLVQSGAEVKKPGASVKVSCKASGYTFTTYDINWVRQATGQGLEWMGWMNPNNGYTGYAQKFQGRVTMTRNTSISTAYMELSSLRSEDTAVYYCARTNWVYWYFDLWGRGTTVTVSS VL: EIVLTQSPATLSLSPGERATLSCRASQSVSSFLAWYQQKPGQAPRLLIYDASNRATGIPARFSGSGSGTDFTLTISSLEPEDFAVYYCQQRSNWPLTFGPGTKVDIKR | binds | – | –
PI108 phage clone (scFv displayed on M13 phage) (scFv, V domains shown, Tested as an scFv on M13 phage (phagemid pCANTAB 5E)) VH: QVQLVQSGAEVKKPGASVKVSCKASGYTFTTYDINWVRQATGQGLEWMGWMNPNNGYTGYAQKFQGRVTMTRNTSISTAYMELTSLRSEDTAVYYCARTNWVYWYFDLWGRGTLVTVSS VL: EIVLTQSPATLSLSPGERATLSCRASQSVSSFLAWYQQKPGQAPRLLIYDASNRATGIPARFSGSGSGTDFTLTISSLEPEDFAVYYCQQRSNWPLTFGPGTKVDIKR | binds | – | –
PI101 phage clone (scFv displayed on M13 phage) (scFv, V domains shown, Tested as an scFv on M13 phage (phagemid pCANTAB 5E)) VH: EVQLVQSGAEVKKPGASVKVSCKASGYNLATYDINWVRQATGQGLEWMGWMNPNSGYTGYAQKFQGRVTMTRDTSINTAYMELSSLRSEDTAVYYCARTNWVYWYFDLWGRGTLVTVSS VL: EIVLTQSPATLSLSPGERATLSCRASQSVSSFLAWYQQKPGQAPRLLIYDASNRATGIPARFSGSGSGTDFTLTISSLEPEDFAVYYCQQRSNWPLTFGPGTKVDIKR | binds | – | –
PN7 phage clone (scFv displayed on M13 phage) (scFv, V domains shown, Tested as an scFv on M13 phage (phagemid pCANTAB 5E)) VH: EVQLVQSGAEVKKPGASVKVSCKASGYTFTTYDINWVRQATGQGLEWMGWMNPNSGYTGYAQKFQGRVTMTRDTSISTAYMELSSLRSEDTAVYYCARTNWESWYFDLWGRGTLVTVSS VL: EIVLTQSPATLSLSPGERATLSCRASQSVSSFLAWYQQKPGQAPRLLIYDASNRATGIPARFSGSGSGTDFTLTISSLEPEDFAVYYCQQRSNWPLTFGPGTKVDIKR | binds | – | –
hTRAILR2-hPSMA bispecific antibody E11-CH1-PI108VH antibody (bispecific antibody, IgG4, domain: constant region; The heavy chain is E11 VH, an IgG4 CH1 linker and PI108 VH, followed by the constant region of the vector; All four light chains carry E11 VL) heavy: not shown VL: EIVLTQSPATLSLSPGERATLSCRASQSVSSFLAWYQQKPGQAPRLLIYDASNRATGIPARFSGSGSGTDFTLTISSLEPEDFAVYYCQQRSNWPLTFGPGTKVDIKR | – | binds | –
hTRAILR2-hPSMA bispecific antibody E11-CH1-PI143VH antibody (bispecific antibody, IgG4, domain: constant region; The heavy chain is E11 VH, an IgG4 CH1 linker and PI143 VH, followed by the constant region of the vector; All four light chains carry E11 VL) heavy: not shown VL: EIVLTQSPATLSLSPGERATLSCRASQSVSSFLAWYQQKPGQAPRLLIYDASNRATGIPARFSGSGSGTDFTLTISSLEPEDFAVYYCQQRSNWPLTFGPGTKVDIKR | – | binds | –
PI127 phage clone (scFv displayed on M13 phage) (scFv, V domains shown, Tested as an scFv on M13 phage (phagemid pCANTAB 5E)) VH: QVQLVQSGAEVKKPGASVKVSCKASGYTFTTYDINWVRQATGQGLEWLGWMNPNNGYTGYAQKFQGRVTMTRNTSIGTAYMELNSLRSEDTAVYYCARTNWVYWYFDLWGRGTLVTVSS VL: EIVLTQSPATLSLSPGERATLSCRASQSVSSFLAWYQQKPGQAPRLLIYDASNRATGIPARFSGSGSGTDFTLTISSLEPEDFAVYYCQQRSNWPLTFGPGTKVDIKR | binds | – | –
hTRAILR2-hPSMA bispecific antibody E11-CH1-PI127VH antibody (bispecific antibody, IgG4, domain: constant region; The heavy chain is E11 VH, an IgG4 CH1 linker and PI127 VH, followed by the constant region of the vector; All four light chains carry E11 VL) heavy: not shown VL: EIVLTQSPATLSLSPGERATLSCRASQSVSSFLAWYQQKPGQAPRLLIYDASNRATGIPARFSGSGSGTDFTLTISSLEPEDFAVYYCQQRSNWPLTFGPGTKVDIKR | – | binds | –
PI115 phage clone (scFv displayed on M13 phage) (scFv, V domains shown, Tested as an scFv on M13 phage (phagemid pCANTAB 5E)) VH: EVQLVQSGAEVKKPGASVKVSCKASGYTFTTYDINWVRQATGQGLEWMGWMNPNNGYTGYAQKFQGRVTMTRNTSISTAYMELSSLRSEDTAVYYCARTNWVYWYFDLWGRGTLVTVSS VL: EIVLTQSPATLSLSPGERATLSCRASQSVSSFLAWYQQKPGQAPRLLIYDASNRATGIPARFSGSGSGTDFTLTISSLEPEDFAVYYCQQRSNWPLTFGPGTKVDIKR | binds | – | –
PL223 phage clone (scFv displayed on M13 phage) (scFv, V domains shown, Tested as an scFv on M13 phage (phagemid pCANTAB 5E)) VH: EVQLVQSGAEVKKPGASVKVSCKASGYTFTTYDINWVRQATGQGLEWMGWMNPNNGYTGYAQKFQGRVTMTRNTSISTAYMELSSLRSEDTAVYYCARTNWVYWYFDLWGRGTMVTVSS VL: EIVLTQSPATLSLSPGERATLSCRASQSVSSFLAWYQQKPGQAPRLLIYDASNRATGIPARFSGSGSGTDFTLTISSLEPEDFAVYYCQQRSNWPLTFGPGTKVDIKR | binds | – | –
hTRAILR2-hPSMA bispecific antibody E11-CH1-PL223VH antibody (bispecific antibody, IgG4, domain: constant region; The heavy chain is E11 VH, an IgG4 CH1 linker and PL223 VH, followed by the constant region of the vector; All four light chains carry E11 VL; also called E11-CHI-PL223VH) heavy: not shown VL: EIVLTQSPATLSLSPGERATLSCRASQSVSSFLAWYQQKPGQAPRLLIYDASNRATGIPARFSGSGSGTDFTLTISSLEPEDFAVYYCQQRSNWPLTFGPGTKVDIKR | – | binds | –
PI118 phage clone (scFv displayed on M13 phage) (scFv, V domains shown, Tested as an scFv on M13 phage (phagemid pCANTAB 5E)) VH: QVQLVQSGAEVKKPGASVKVSCKASGYNLTTYDINWVRQATGQGLEWMGWMNPNSGYTGYAQKFQGRVTMTRNTSIDTAYMELSNLRSEDTAVYYCARTNWVYWYFDLWGRGTLVTVSS VL: EIVLTQSPATLSLSPGERATLSCRASQSVSSFLAWYQQKPGQAPRLLIYDASNRATGIPARFSGSGSGTDFTLTISSLEPEDFAVYYCQQRSNWPLTFGPGTKVDIKR | binds | – | –
anti-hPSMA monoclonal antibody 2A10 antibody (antibody, human IgG1, V domains shown, Expressed from vector N5KG1 (N5KG1_2A10), the human IgG1 type vector) VH: EVQLVQSGAEVKKPGESLKISCKGSGYSFTSNWIGWVRQMPGKGLEWMGIIYPGDSDTRYSPSFQGQVTISADKSISTAYLQWSSLKASDTAMYYCARQTGFLWSSDLWGRGTLVTVSS VL: IQLTQSPSSLSASVGDRVTITCRASQDISSALAWYQQKPGKAPKLLIYDASSLESGVPSRFSGYGSGTDFTLTINSLQPEDFATYYCQQFNSYPLTFGGGTKVEIK | – | – | binding result [3]: binds
